Reference: US20240245805A1 (Orna Therapeutics, Inc., priority 2020, published 2024)

B1: Falcon picornavirus (nucleic acid)
chain: CGCTTGGAATAAGTTGAGAGGAATTATGCATGCTAGTTGTGTTTGTTTACAACTAATTGTTCTAATCCAAGTGAAGCTCTTCGCTTGGGGCGGCACGACACTTGCCGTAATTCTTCTACCGTCCCTCCACACCTTGTGGATGAAGGGCCGGATGTGTGGCCTCTGGCTAACCCCTCTCTCTGGGGTGATGCTACTGGATGTTTTACTCCTAGACCAAATCACATGAACTCCTCTTGATCCACTTCGGTGGGGCTATGAGCCTGCGGATTAATAGCTGGCGACAGCTACCCCAGGGGCCAAAAGCCACGGTGTTAGCAGCACCCTCATAGTCTGATGCCCAAGGGCTGATGTTGGGAGCTAGTAGTGTGTGTCTGGCCTATGTTTAGGACTTCTGGCCAAGCGCAGAGGAGTGGGGCTGAAGGATGCCCAGAAGGTACCCGTAGGTAACCTTAAGAGACTATGGATCTGATCTGGGGCCCCCTCACGTGGCTTTACCACGTGTTGGGGGTTAAAAAACGTCTAGGCCCCACCAGCCCACGGGAGTGGGCTTTCCCTTAAAAAGCCCAACAATATTTATGGTGACAATTCACTGTTTCTTCTTTGCAATTTTTGTATTCTTGGACTCCTTATTTTTTGTTTGCTTGATTTTAGTGGACATTCAGATTCAAATACAAA
modifications: lipid formulation; source: /note="Description of Unknown: Falcon picornavirus sequence"
B2: Equine arteritis virus (nucleic acid)
chain: GCTCGAAGTGTGTATGGTGCCATATACGGCTCACCACCATATACACTGCAAGAATTACTATTCTTGTGGGCCCCTCTCGGTAAATCCTAGAGGGCTTTCCTCTCGTTATTGCGAGATTCGTCGTTAGATAACGGCAAGTTCCCTTTCTTACTATCCTATTTTCATCTTGTGGCTTGACGGGTCACTGCCATCGTCGTCGATCTCTATCAACTACCCTTGCGACT
modifications: lipid formulation; source: /note="Description of Unknown: Equine arteritis virus sequence"
B3: Human coxsackievirus A2 (nucleic acid)
DNA: ACCTTTGTGCGCCTGTTTTATATCCCCACCCCGAGTAAACGTTAGAAGTTACGCAACCCCGATCAATAGTAGGTGTAGCACTCCAGCTGCATCGAGATCAAGCACTTCTGTCTCCCCGGACCGAGTATCAATAGACTGCTAACGCGGTTGAAGGAGAAAACGTTCGTTACCCGGCCAATTACTTCGAGAAGCCCAGTAGTGCCGTGAAAGTTGCGGAGTGTTTCGCTCAGCACTTCCCCCGTGTAGATCAGGCTGATGAGTCACCGCGATCCCCACAGGTGACTGTGGCGGTGGCTGCGTTGGCGGCCTGCCTATGGGGCAACCCATAGGACGCTCTAATACAGACATGGTGCGAAGAGCCTATTGAGCTAATTGGTAGTCCTCCGGCCCCTGAATGCGGCTAATCCTAACTGCGGAGCACATGCCCTCAAACCAGGGGGTGGTGTGTCGTAACGGGTAACTCTGCAGCGGAACCGACTACTTTGGGTGTCCGTGTTTCTTTTTATTCTTATAATGGCTGCTTATGGTGACAATTAAAGAATTGTTACCATATAGCTATTGGATTGGCCATCCGGTGACTAACAAATCGCTCATATACCAGTTTGTTGGTTTTGTTCCCTTATCACATACAGCTCATAACACCCTCTTATATTTACTACAATTGAATAGCAAGAA
modifications: source: /note="Description of Unknown: Human coxsackievirus A2 sequence"
B4: Enterovirus sp. isolate CPML (nucleic acid, listed as Enterovirus sp.)
chain: ACTCTGGTATCACGGTACCTTTGCACGCCTATTTTATACCCCTTCCCCATCGTAACTTAGAAGCAACAAACAAACTGCCCAATAGCAGCACAACACCCAGTTGTGTTAGGGGCAAGCACTTCTGTTTCCCCGGAAGGGTCTGACGGTATGCTGTACCCACGGCAGAAGTATGACCTACCGTTAACCGGCCATGTACTTCGAGAAGCCTAGTACCATTATGAAGGTTGATTGATGTTACGCTCCCCAGCAACCCCAGCTGGTAGTTCTGGTCGATGAGTCTCGGCATTCCCCACGGGCGACCGTGGCCGAGGCTGCGTTGGCGGCCAGCCTACACCATACGGTGTAGGACGTCAAGATACTGACATGGTGTGAAGAGCCTATTGAGCTACGTGGTAGTCCTCCGGCCCCTGAATGCGGCTAATCCTAACTCCGGAGCATCCGCCAGTAAGCCCACTGGAAGGGTGTCGTAATGCGAAAGTCTGGAGCGGAACCGACTACTTTGGGTGTCCGTGTTTCCTGTTTTACTTATTGTTTGGCTGCTTATGGTGACAACTTATAGTTATCATCATAAGCTACTTGGTCTTGCCAACCGGAGAATTATTTGGTTATTTGTTGGTTTCATAAACCTACAGTCGTATTTTCCTGTCTTATTAATTGTTCTCAAAATTAACAACA
modifications: lipid formulation
B5: Equine rhinitis A virus (nucleic acid)
chain: AAGGGTTACTGCTCGTAATGAGAGCACATGACATTTTGCCAAGATTTCCTGGCAATTGTCACGGGAGAGAGGAGCCCGTTCTCGGGCACTTTTCTCTCAAACAATGTTGGCGCGCCTCGGCGCGCCCCCCCTTTTTCAGCCCCCTGTCATTGACTGGTCGAAGGCGCTCGCAATAAGACTGGTCGTTGCTTGGCTTTTCTATTGTTTCAGGCTTTAGCGCGCCCTTGCGCGGCGGGCCGTCAAGCCCGTGTGCTGTACAGCACCAGGTAACCGGACAGCGGCTTGCTGGATTTTCCCGGTGCCATTGCTCTGGATGGTGTCACCAAGCTGGCAGATGCGGAGTGAACCTTACGAAGCGACACACCTGTGGTAGCGCTGCCCAGAAGGGAGCGGAGCTCCCCCGCCGCGAGGCGGTCCTCTCTGGCCAAAAGCCCAGCGTTAATAGCGCCTTCTGGGATGCAGGAACCCCACCTGCCAGGTGTGAAGTGGACTAAGTGGATCTCCAATTTGGCCTGTTCTGAACTACACCATCTACTGCTGTGAAGAATGTCCTGAAGGCAAGCTGGTTACAGCCCTGATCAGGAGCCCCGCTCGTGACTCTCGATCGACGCGGGGTCAAAAACTGTCTAAGCAGCAGCAGAAACGCGGGAGCGTTTCTTTTTCCTCATTTGTTTC
modifications: lipid formulation; Equine rhinitis A virus
B6: Equine rhinitis B virus 1 (nucleic acid)
chain: CGACAGGCACAGGTCGCTCCGAGTTCTAGTAGTGTGGGAACTTGTTACTACTGATGAAACGAGGTAGTGACACTCAGTACCTGCGAACGAGGTCGGGGCCCTCCCTTCTTCCTTCACCCAACTTTCACTTTTCGTTCCACTTTAGCAGGGGTCTTCTTTCTATCCCCCTGGCGGCATTGGAACTAGCCGTCGCGTCTTAACGCGCAGCCCTGAAGGCCCCACACCTTGTGGATCTTGCCGTGGGTATGTTTCTGGCATGTGTTTCTCAAGCCTGCAACCGAAGCCGAACAGCCACATGAACAGTTTGAGCGTGGTAGCGCTGTGTGAGTTGGCGGTGGATCCCCCTCGTGGTAACACGAGCCCCCGTGGCCAAAAGCCCAGTGTTTACAGCACCTCTCACATCCAGGACGACCCCATCCTGGCGCTCACTCTTAGTAGTATGGCTTAGTACGCATTAGGTGGTAAGCCGAGCTCTCCCTCGGCCTTGTTCTGAATGCACACATGTCTAGGGGCTAAGGATGTCCTACAGGTACCCGCACGTAACCTTCAGAGAGTGCGGATCTGAGTAGGAGACCGTGGTGCACTGCTTTACAGATGCAGCCCGGTTTAAAAAGCGTCTATGCCCCTACAGGGTAGCGGTGGGCCGCGCCCTTTCCTTTTAAAACTACTTGTTCT
modifications: lipid formulation; source: /note="Description of Unknown: Equine rhinitis B virus 1 sequence"

test system: HEK293 cells; format: cell-based, human; conditions: circular RNA encoding Gluc with the listed IRES (UTR truncated to 675 nt) transfected into HEK293 cells; supernatant after 24 hours

Molecule	Expression (luminescence from secreted Gluc protein)
B1	3.08E+06
B2	1.89E+05
B3	7.75E+07
B4	6.83E+07
B5	3.73E+05
B6	1.01E+05
